In patent publication US20240026407A1, “MODIFICATION OF SAPONINS” (GLAXOSMITHKLINE BIOLOGICALS SA, priority 2020, published 2024):

B1: 837 (protein, listed as Bifidobacterium magnum)
chain: MTDNLTIGVTEANELSVKEQASLTSGQDAWHLQGIPSKGIPGYMITDGPHGLRKTTAGNGDEMNLDRSVPATCFPPAAGLSSSWNPQLVREVGEAMGEECVQEKVAVILGPGVNIKRNPLGGRNFEYWSEDPYLAGHEAAGIVDGVQSKGVGASLKHFAVNNQETDRFRVSALVSERALREIYLPAFEYIVKHSRPWTVMCSYNKINGVYSSENHWLLTDVLRKEWGFDGIVMSDWGADHNRVAALNAGLNLEMPPSGTDEQVVQGVENGTLKREQLETMAQAMIDLAHKAEDAMNQDGYRYNVDDHNNTARRAARESMVLLKNEEHVLPVKEQDHIAVIGEFARTPRYQGSGSSRINPTRLTSFLDAAQERGVSLTFAPGYTLDQSPADTQLEQEAVDAAAQADTVLMFMGLPDYDESEGFDRTTLAMPAKQLELLGKVTAANKRVVVILSNGSAVTMTPWNESVPAILETWLLGQAGGVALADIVFGDVSPSGRLAQTIPVELTDDPSTINWPGEEHHVNYGEGVFVGYRYYDTFHKPVAYPFGFGLGYADFAIDEVQVRATGVHAAQVRAKVTNLSQDTAASHVVQVYVRPVEPKVPGEASEHVARPVHELKGFAKVYLEPGQSDTVTIDLDERAFAYWSEEFHDWRIEGGEYGIEVGSSSRDIAATVPVTIAGDGKRKPLTVWNTLDEWRKDPVGKAVAGELMAKLREQGADFTGGDTSTEIFMNTLPINSLTALMGPQGNQVEDFLLGEYARRTQ
B2: 883 (protein, listed as Salinispira pacifica)
chain: MKSIQEIRSSLTLEEKASLCSGKDFWNLKSFESKGVPAIMVADGPHGLRKQMESSADHIGIGGSVPATCFPTASAMASSWDTQLLNEVGNALGEECRQEHVAVLLGPGVNIKRSPLCGRNFEYFSEDPYLGGKLAASLIRGVQSMGVGTSLKHFAANNQERRRMIIDAVVDERALRELYLAGFETAVKESSPKTVMCAYNKLNGAFCSENHRLLSEILKEEWGFEGFVVTDWGAVNDRVAGLNAGLDLEMPASGGYNDNLMVEAVQNGTLSENSLNDAVDRILKVVLETHTALQEEFTYDAAAHHRLAQKAESESAVLLKNDKLFPLNSEDFRTEEKHGSQEHKSPKLALIGSFAKEPRYQGSGSSLINPRQLDSAYDAISRELGGDMQLLYAPGYDPADEEPDSRLIQEAVNTAAAADTVIVFAGLPEISESEGFDREHLSMPRSHNDLISAVAQVNPRTAVVLSNGSPVTMPWLDSVPAVLESYLGGQAWGSAISDIIFGRANPSGKLAETFPLSLQDVPSSAQFPGGSASVVYTDSLYVGYRYFSGTGKPVLFPFGHGLSYTRFSYDGLKITGRGTGRTVQCRITNTGSRDGKEVIQLYVHSESSSVFRPEQELKGFSKVSLAPGEEKTVEFRLDDRSFAYWDPGAGDWMVESGNYEIRIAASSADIRLRETIRIDSTQTPSQWAADLRNRIPEFFSPAPELFHDISPESPFRKLLGRPIPPPHWDTREGFTRNSTLEETTRTFIGRILYKAVMREGSRMMSQDADEKSIAMMQAVIREMPLKNLGMMGGDKISMHTVDSLILLLNGKIIRGLGSLLRRK

Assays:
Format in all cases: biochemical, Quillaja saponaria
[1] = Experiment 5-2: screening of additional glucosidases for deglycosylation with QS-18 in crude bark extract (80%) at pH 6 and 35 deg C; settings: CBE 80%, pH 6, 35 deg C, 18 hours; UV HPLC
In short: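 Clarified glucosidase lysate (prepared at pH 6) was incubated with pH 6-adjusted crude bark extract at 35 deg C with shaking for 18 hours. Reactions were quenched with MeCN containing 2% AcOH and hexanophenone, then analysed by UV HPLC.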

[2] = Experiment 5-3: screening of additional glucosidases for deglycosylation with QS-18 in treated bark extract (80%) at pH 6 and 35 deg C; settings: TBE 80% (QS-21 approx. 4 g/L), pH 6, 35 deg C; UV HPLC
Protocol: Experiment 5-1 was repeated, replacing CBE with Treated Bark Extract (TBE) at pH 6. TBE was prepared from CBE by PVPP treatment and concentration, to provide TBE with a QS-21 concentration of approximately 4 g/L. TBE was adjusted to pH 6 by dropwise addition of 2M NaOH with stirring.

[3] = Experiment 5-1: screening of additional glucosidases for deglycosylation with purified QS-18 (0.04 mg/ml) at pH 7.5 and 30 deg C; settings: pH 7.5, 30 degrees C, 18 hours, LCMS/MS
Protocol: The 94 additional genes, together with positive control (DNA encoding SEQ ID No. 262) and negative control, were transformed, expressed, lysed and reacted in the same manner as described above for Experiment 4-1, except the reaction was incubated at 30 degrees C. for 18 hours.
Samples were analysed by LCMS/MS according to the procedure in Experiment 4-1.

Molecule | Experiment 5-2 % conv [1] [%] | Experiment 5-3 % conv [2] [%] | Experiment 5-1 % conv [3] [%]
B1 | <0.5 | <0.5 | 7.6
B2 | <0.5 | <0.5 | 7.0
